# Patent publication EP4184166A1 (FNCT Biotech, Inc., dated 2023)
# Where a chain is given by its changes, count along the chain named. Names and notes keep the numbering of the source.
# B1: ICAM-1 Y512A mutant (receptor)
# chain: QTSVSPSKVILPRGGSVLVTCSTSCDQPKLLGIETPLPKKELLLPGNNRKVYELSNVQEDSQPMCYSNCPDGQSTAKTFLTVYWTPERVELAPLPSWQPVGKNLTLRCQVEGGAPRANLTVVLLRGEKELKREPAVGEPAEVTTTVLVRRDHHGANFSCRTELDLRPQGLELFENTSAPYQLQTFVLPATPPQLVSPRVLEVDTQGTVVCSLDGLFPVSEAQVHLALGDQRLNPTVTYGNDSFSAKASVSVTAEDEGTQRLTCAVILGNQSQETLQTVTIYSFPAPNVILTKPEVSEGTEVTVKCEAHPRAKVTLNGVPAQPLGPRAQLLLKATPEDNGRSFSCSATLEVAGQLIHKNQTRELRVLYGPRLDERDCPGNWTWPENSQQTPMCQAWGNPLPELKCLKDGTFPLPIGESVTVTRDLEGTYLCRARSTQGEVTRKVTVNVLSPRYEIVIITVVAAAVIMGTAGLSTYLYNRQRKIKKARLQQAQKGTPMKPNTQATPP
# notes: Mutant expressed in cells for immunoprecipitation
# B2: ICAM-1 Y512D mutant (receptor)
# chain: B1 chain with A485D
# notes: as for B1
# Target: T1, SRC (UniProt P12931 2-536, limits assumed)
# T1 construct: whole, on cells; Endogenous intracellular protein in cell lysates or stained cells; also called p-SRC (phosphorylated form)
# Experiment: immunoprecipitation with ICAM-1 Tyr512 mutants
binder,measurement,value
B1,binding result,binds
B2,binding result,binds
